Test results reported in US7098025B1, “Human peroxisome proliferator activated receptor gamma (pparγ) gene regulatory sequences and uses therefor” (Ligand Pharmaceuticals Incorporated, priority 1997, dated 2006).

T1: RXRalpha (Mus musculus, UniProt P28700 P28700:1-467)
T1 sequence: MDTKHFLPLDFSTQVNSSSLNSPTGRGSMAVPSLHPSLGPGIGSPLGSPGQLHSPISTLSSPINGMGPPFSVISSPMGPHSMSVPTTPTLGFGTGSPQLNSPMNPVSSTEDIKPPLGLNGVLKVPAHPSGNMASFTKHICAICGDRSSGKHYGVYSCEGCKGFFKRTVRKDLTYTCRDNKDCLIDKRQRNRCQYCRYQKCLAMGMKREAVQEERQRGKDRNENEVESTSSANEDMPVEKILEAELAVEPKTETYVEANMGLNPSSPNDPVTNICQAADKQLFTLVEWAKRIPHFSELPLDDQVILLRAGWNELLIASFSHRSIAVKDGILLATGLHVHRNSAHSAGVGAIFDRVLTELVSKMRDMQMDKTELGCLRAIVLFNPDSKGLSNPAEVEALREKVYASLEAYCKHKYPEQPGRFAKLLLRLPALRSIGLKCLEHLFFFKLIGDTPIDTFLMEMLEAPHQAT

B1: apoA-II J site PPRE (dsDNA)
DNA 1: GATCCTTCAACCTTTACCCTGGTAGA
DNA 2: TCTACCAGGGTAAAGGTTGAAGGATC
B2: MCSF: macrophage colony stimulating factor (protein, UniProt P09603 33-554, looked up)
Macrophage colony-stimulating …: EEVSEYCSHMIGSGHLQSLQRLIDSQMETSCQITFEFVDQEQLKDPVCYLKKAFLLVQDIMEDTMRFRDNTPNAIAIVQLQELSLRLKSCFTKDYEEHDKACVRTFYETPLQLLEKVKNVFNETKNLLDKDWNIFSKNCNNSFAECSSQDVVTKPDCNCLYPKAIPSSDPASVSPHQPLAPSMAPVAGLTWEDSEGTEGSSLLPGEQPLHTVDPGSAKQRPPRSTCQSFEPPETPVVKDSTIGGSPQPRPSVGAFNPGMEDILDSAMGTNWVPEEASGEASEIPVPQGTELSPSRPGGGSMQTEPARPSNFLSASSPLPASAKGQQPADVTGTALPRVGPVRPTGQDWNHTPQKTDHPSALLRDPPEPGSPRISSLRPQGLSNPSTLSAQPQLSRSHSSGSVLPLGELEGRRSTRDRRSPAEPEGGPASEGAARPLPRFNSVPLTDTGHERQSEGSFSPQLQESVFHLLVPSVILVLLAVGGLLFYRWRRRSHQEPQRADSPLEQPEGSPLTQDDRQVELPV

Tests used:
[1] = biological target: PPARgamma2/RXRalpha heterodimer (Homo sapiens / Mus musculus, UniProt P37231;P28700 P37231:1-505,P28700:1-467); assay: EMSA; pH 7.9, 40 mM KCl, on ice; self-competition almost complete; conditions: tags: rabbit reticulocyte lysate (Promega); label: 32P (T4-PNK)
Chain of PPARgamma2/RXRalpha heterodimer (P37231 whole entry, one chain of several): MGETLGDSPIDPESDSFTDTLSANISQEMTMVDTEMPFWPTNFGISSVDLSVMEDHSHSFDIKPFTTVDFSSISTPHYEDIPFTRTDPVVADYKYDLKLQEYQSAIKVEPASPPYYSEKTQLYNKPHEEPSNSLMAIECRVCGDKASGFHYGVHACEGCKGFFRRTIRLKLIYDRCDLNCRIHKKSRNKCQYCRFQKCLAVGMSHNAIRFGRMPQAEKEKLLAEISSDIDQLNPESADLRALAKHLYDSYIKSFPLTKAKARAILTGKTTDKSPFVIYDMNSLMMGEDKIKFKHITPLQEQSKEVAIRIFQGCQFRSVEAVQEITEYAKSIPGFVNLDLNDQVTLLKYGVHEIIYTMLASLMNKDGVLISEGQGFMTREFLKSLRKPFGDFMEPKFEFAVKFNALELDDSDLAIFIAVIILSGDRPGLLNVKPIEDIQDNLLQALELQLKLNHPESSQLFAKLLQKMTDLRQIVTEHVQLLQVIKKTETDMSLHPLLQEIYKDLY
Procedure: (§1) To analyze whether PPARγ could bind to a PPRE, classically composed of direct repeats spaced by one intervening nucleotide (DR-1), EMSA was performed using in vitro transcribed/translated PPARγ2 protein. An oligonucleotide containing a high affinity PPRE, previously identified in the apoA-II promoter J site, was used in EMSA (29).
(§2) 7. Electrophoretic Mobility Shift Assays (EMSA) and Oligonucleotide Sequences haPPARγ (39), hPPARγ2, and mRXRα (40) proteins were synthesized in vitro in rabbit reticulocyte lysate (Promega). Molecular weights and quality of the in vitro translated proteins were verified by SDS-PAGE. PPAR (2 μl) and/or RXR (2 μl) were incubated for 15 min on ice in a total volume of 20 μl with 1-ng probe, 2.5 μg of poly(dI-dC) and 1 μg of herring sperm DNA in binding buffer (10 mM Tris-HCl pH 7.9, 40 mMKCl, 10% glycerol, 0.05% Nonidet P-40, and 1 mM dithiothreitol). For competition experiments, increasing amounts (from 10- to 200-fold molar excess) of cold oligonucleotide (AII-J-PPRE, 5'-[…]-3' (41) SEQ ID NO: 24; acyl-CoA oxidase (ACO)-PPRE, 5'-[…]-3' (42) SEQ ID NO: 25; or LPL-PPRE, 5'-[…]-3 (23) SEQ ID NO: 26; were included just before adding T4-PNK end-labeled AII-J-PPRE oligonucleotide. DNA-protein complexes were separated by electrophoresis on a 4% polyacrylamide gel in 0.25×TBE buffer at 4° C. (43).

PPARgamma2 = PPARgamma2 (Homo sapiens, UniProt P37231 P37231:1-505); assay: EMSA; homodimer, no RXR; conditions: tags: rabbit reticulocyte lysate (Promega); label: 32P (T4-PNK)
Chain of PPARgamma2 (P37231 whole entry, one chain of several): as above
Procedure: as §1, §2

RXRalpha = biological target: T1, RXRalpha; assay: EMSA; homodimer, no PPAR; conditions: tags: rabbit reticulocyte lysate (Promega); label: 32P (T4-PNK)
Procedure: as §1, §2

[2] = biological target: PPARgamma/RXRalpha heterodimer (hamster haPPARgamma) (hamster / Mus musculus, UniProt P57797;P28700 P57797:1-475,P28700:1-467); assay: EMSA; pH 7.9, 40 mM KCl, on ice; conditions: tags: rabbit reticulocyte lysate (Promega); label: 32P (T4-PNK)
Procedure: as §1, §2

PPARγ expression = PPARγ expression in primary macrophages and monocytic cell lines; type: cell-based
Source text: PPARγ is expressed in a subset of macrophages and negatively regulates the expression of several pro-inflammatory genes in response to its ligands. We recently discovered the presence of PPARγ in human macrophages foam cells of human atherosclerotic lesions. In these cells, PPARγ is present in a pattern correlated with that of oxidation-specific epitopes. Oxidized low-density lipoprotein (LDL) and macrophage colony stimulating factor (MCSF) are known to be present in atherosclerotic lesions. […] Furthermore, phorbol esters induced PPARγ expression.

Molecule	binding result [1]	binding result (PPARgamma2)	binding result (RXRalpha)	binding result [2]	PPARγ expression (PPARγ expression)
B1	binds	no binding	no binding	binds	
B2					stimulate PPARγ expression
